{"source": "patent US20030224453A1", "about": "“Structural models for cytoplasmic domains of transmembrane receptors” (priority 1998, published 2003)", "molecules": {"B1": {"name": "G4-β1A: β1A construct with three additional glycines between heptad repeats and cytoplasmic domain (protein)", "chain": "GSSHHHHHHSSGLVPRGSHMKLEALEGRLDALEGKLEALEGKLDALEGGGGKLLMIIHDRREFAKFEKEKMNAKWDTGENPIYKSAVTTVVNPKYEGK"}, "B2": {"name": "G1-β1A: His-tag, four heptad repeats, one glycine, β1A integrin cytoplasmic domain (protein)", "chain": "GSSHHHHHHSSGLVPRGSHMCGKLEALEGRLDALEGKLEALEGKLDALEGKLLMIIHDRREFAKFEKEKMNAKWDTGENPIYKSAVTTVVNPKYEGK"}}, "note": "Ends that are not written are not given here."}
{"biological_target": "T1, integrin β3 cytoplasmic domain (Homo sapiens, UniProt P05106)", "T1 sequence (P05106 742-788 limits assumed)": "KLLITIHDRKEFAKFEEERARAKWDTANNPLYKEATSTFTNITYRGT", "assay": "Immunochemical ELISA: αIIb peptides added to fixed saturating β3 peptide, competition for anti-model protein antibody binding to coated αIIbβ3 (EC50 determination)", "settings": "dose of αIIb peptide resulting in B/B0=0.5 with fixed saturating β3 peptide (20-50 nM)", "text": "(§1) Antibodies raised against a mimic of the present invention were used in an immunochemical assay to identify compounds that bind to the 3 cytoplasmic domain and induce a conformation change. In this assay, the binding of the αIIb and β3 cytoplasmic tails was first analyzed. […] Furthermore, as shown in this Table, point mutations or deletions that disrupted this heptapeptide sequence in the αIIb cytoplasmic domain also disrupted interaction with β3.\n(§2) αIIbβ3 was purified by gel filtration in accordance with procedures described by Du et al. (Cell 65:409-416 (1991)) with omission of the heparin and Con A affinity chromatography steps. The final product was greater than 95% homogenous as judged by SDS PAGE. In the enzyme-linked immunosorbent assay (ELISA) the αIIbβ3 was used at a concentration of 5 μg/ml in a coating buffer containing 0.1 M NaHCO3 and 0.05% NaN3. Fifty ul/well was used to coat IMMULON II microtiter wells at 4° C. overnight. After removal of the coating solution, 150 Al blocking buffer (coating buffer containing 5% bovine serum albumin) was added. After an additional one hour incubation at 4° C., the blocking buffer was removed and the plates were washed three times with wash buffer (0.01 M Tris, 0.15 M NaCl, 0.01% thimerisol, 0.05% Tween 20, pH 8.0). Twenty-five microliters of the competitor was added to each well followed by 25 μl of a dilution of the anti-model protein antibody. Following mixing, the plate was covered for one hour at 37° C. and washed four times with wash buffer. To quantify bound antibody, 50 μl of horseradish peroxidase-conjugated goat anti-rabbit IgG (Biorad) was diluted to a concentration of 1/1000 in wash buffer containing 1 mg/ml bovine serum albumin. These plates were then incubated at 37° C. for 1.5 hours. After four washes, bound antibody was assayed by measuring peroxidase activity with O-phenylenediamine as a substrate and quantifying reaction product by its optical density at 490 nm. Data were expressed as B/B0 where B=A490 in the presence of competitor and B0=A490 in its absence. In some experiments, varying concentrations of αIIb peptides were added to a fixed, saturating, quantity of β3 peptide (20-50 nM). Competition was again expressed as B/BO, however, B0 was the A490 in the presence of the β3 peptide and no added αIIb peptide. EC50 was defined as the dose of αIIb resulting in B/B0=0.5.", "units": {"EC50": "nM"}}
{"molecule": "PPLEED [PPLEED]", "EC50": "> 1000"}
{"molecule": "KVGFFKRNRPPLEEAAEEGQ", "EC50": "> 1000"}
{"molecule": "KVGFFKRNRPPLEE", "EC50": "> 1000"}
{"molecule": "KVGFFPLEEAAEEGQ", "EC50": "> 1000"}
{"molecule": "PLEEDDEEGQ", "EC50": "> 1000"}
{"biological_target": "T1, integrin β3 cytoplasmic domain", "assay": "Immunochemical ELISA: αIIb peptides added to fixed saturating β3 peptide, competition for anti-model protein antibody binding to coated αIIbβ3 (EC50 determination)", "settings": "result in words", "text": "as §1, §2"}
{"molecule": "full-length αIIb peptide: full-length linear peptide of the αIIb cytoplasmic domain (KVGFFKRNRPPLEEDDEEGE)", "interaction with β3 cytoplasmic tail (induces conformation change seen by antibody)": "apparent affinity of the interaction was high"}
{"system": "platelet αIIbβ3", "assay": "ELISA: inhibition by competitor of anti-mimic antibody reactivity with native platelet αIIbβ3", "assay_type": "binding, human", "settings": "antibody raised against FIG. 2 heterodimeric mimic; result in words", "description": "Antibodies against these heteromeric complexes of the present invention that recognize combinatorial epitopes of the cytoplasmic domains of the complex can be produced in accordance with well known techniques. For example, antibodies were prepared against the heterodimeric complex of FIG. 2. […] Thus, this antibody recognized combinatorial epitopes in the cytoplasmic domain of the native receptor that were mimicked in the model protein.\nAntibodies to the model protein depicted in FIG. 2 were raised in 2.5 kg New Zealand white rabbits. One hundred microliters of a water solution containing 1 mg/ml of the model protein was emulsified in 1 ml incomplete Freund's adjuvant and administered subcutaneously to each New Zealand white rabbit. Two additional injections at 2-week intervals were followed by bleeding (approximately 50 mls) at monthly intervals until the rabbits were sacrificed. Blood was permitted to clot at room temperature, and the serum was recovered by centrifugation. Serum was heat inactivated at 56° C. for 30 minutes and stored at −20° C. A pre-immune serum, obtained prior to immunization, was used as a control.\nαIIbβ3 was purified by gel filtration in accordance with procedures described by Du et al. (Cell 65:409-416 (1991)) with omission of the heparin and Con A affinity chromatography steps. […] To quantify bound antibody, 50 μl of horseradish peroxidase-conjugated goat anti-rabbit IgG (Biorad) was diluted to a concentration of 1/1000 in wash buffer containing 1 mg/ml bovine serum albumin. […] After four washes, bound antibody was assayed by measuring peroxidase activity with O-phenylenediamine as a substrate and quantifying reaction product by its optical density at 490 nm. Data were expressed as B/B0 where B=A490 in the presence of competitor and B0=A490 in its absence. In some experiments, varying concentrations of αIIb peptides were added to a fixed, saturating, quantity of β3 peptide (20-50 nM). Competition was again expressed as B/BO, however, B0 was the A490 in the presence of the β3 peptide and no added αIIb peptide. […]"}
{"molecule": "full-length αIIb peptide: full-length linear peptide of the αIIb cytoplasmic domain (KVGFFKRNRPPLEEDDEEGE)", "inhibition of antibody reactivity with platelet αIIbβ3": "not inhibited"}
{"molecule": "β3 (Y747A) mutant: mutant of the β3 cytoplasmic domain, Y747A (KLLITIHDRKEFAKFEEERARAKWDTANNPLAKEATSTFTNITYRGT)", "inhibition of antibody reactivity with platelet αIIbβ3": "completely inhibited"}
{"molecule": "full-length β3 peptide: full-length linear peptide of the β3 cytoplasmic domain (KLLITIHDRKEFAKFEEERARAKWDTANNPLYKEATSTFTNITYRGT)", "inhibition of antibody reactivity with platelet αIIbβ3": "only partially inhibited"}
{"biological_target": "T2, Full-length β3 peptide (β3 cytoplasmic tail) (UniProt P05106 742-788, limits assumed)", "T2 construct": "domain: cytoplasmic domain; also called wild-type β3", "T2 peptide (looked up)": "T1 sequence (P05106 742-788 limits assumed)", "assay": "competitive ELISA with β3 peptide and anti-model protein antibody on coated αIIbβ3", "settings": "not given"}
{"molecule": "KLGFFKRSLPYGTAMEKAQLKPPATSDA (peptide, UniProt P08648 1022-1049, looked up, domain: cytoplasmic domain)", "note": "[Cytoplasmic domain of integrin α5]", "binding result": "no binding"}
{"molecule": "KAGFFKRQYKSILQEENRRDSWSYINSKSNDD (peptide, UniProt P13612 1001-1032, looked up, domain: cytoplasmic domain)", "note": "[Cytoplasmic domain of integrin α4]", "binding result": "no binding"}
{"biological_target": "talin (Homo sapiens, UniProt Q9Y490)", "sequence (Q9Y490 whole entry, the tested form may be a part)": "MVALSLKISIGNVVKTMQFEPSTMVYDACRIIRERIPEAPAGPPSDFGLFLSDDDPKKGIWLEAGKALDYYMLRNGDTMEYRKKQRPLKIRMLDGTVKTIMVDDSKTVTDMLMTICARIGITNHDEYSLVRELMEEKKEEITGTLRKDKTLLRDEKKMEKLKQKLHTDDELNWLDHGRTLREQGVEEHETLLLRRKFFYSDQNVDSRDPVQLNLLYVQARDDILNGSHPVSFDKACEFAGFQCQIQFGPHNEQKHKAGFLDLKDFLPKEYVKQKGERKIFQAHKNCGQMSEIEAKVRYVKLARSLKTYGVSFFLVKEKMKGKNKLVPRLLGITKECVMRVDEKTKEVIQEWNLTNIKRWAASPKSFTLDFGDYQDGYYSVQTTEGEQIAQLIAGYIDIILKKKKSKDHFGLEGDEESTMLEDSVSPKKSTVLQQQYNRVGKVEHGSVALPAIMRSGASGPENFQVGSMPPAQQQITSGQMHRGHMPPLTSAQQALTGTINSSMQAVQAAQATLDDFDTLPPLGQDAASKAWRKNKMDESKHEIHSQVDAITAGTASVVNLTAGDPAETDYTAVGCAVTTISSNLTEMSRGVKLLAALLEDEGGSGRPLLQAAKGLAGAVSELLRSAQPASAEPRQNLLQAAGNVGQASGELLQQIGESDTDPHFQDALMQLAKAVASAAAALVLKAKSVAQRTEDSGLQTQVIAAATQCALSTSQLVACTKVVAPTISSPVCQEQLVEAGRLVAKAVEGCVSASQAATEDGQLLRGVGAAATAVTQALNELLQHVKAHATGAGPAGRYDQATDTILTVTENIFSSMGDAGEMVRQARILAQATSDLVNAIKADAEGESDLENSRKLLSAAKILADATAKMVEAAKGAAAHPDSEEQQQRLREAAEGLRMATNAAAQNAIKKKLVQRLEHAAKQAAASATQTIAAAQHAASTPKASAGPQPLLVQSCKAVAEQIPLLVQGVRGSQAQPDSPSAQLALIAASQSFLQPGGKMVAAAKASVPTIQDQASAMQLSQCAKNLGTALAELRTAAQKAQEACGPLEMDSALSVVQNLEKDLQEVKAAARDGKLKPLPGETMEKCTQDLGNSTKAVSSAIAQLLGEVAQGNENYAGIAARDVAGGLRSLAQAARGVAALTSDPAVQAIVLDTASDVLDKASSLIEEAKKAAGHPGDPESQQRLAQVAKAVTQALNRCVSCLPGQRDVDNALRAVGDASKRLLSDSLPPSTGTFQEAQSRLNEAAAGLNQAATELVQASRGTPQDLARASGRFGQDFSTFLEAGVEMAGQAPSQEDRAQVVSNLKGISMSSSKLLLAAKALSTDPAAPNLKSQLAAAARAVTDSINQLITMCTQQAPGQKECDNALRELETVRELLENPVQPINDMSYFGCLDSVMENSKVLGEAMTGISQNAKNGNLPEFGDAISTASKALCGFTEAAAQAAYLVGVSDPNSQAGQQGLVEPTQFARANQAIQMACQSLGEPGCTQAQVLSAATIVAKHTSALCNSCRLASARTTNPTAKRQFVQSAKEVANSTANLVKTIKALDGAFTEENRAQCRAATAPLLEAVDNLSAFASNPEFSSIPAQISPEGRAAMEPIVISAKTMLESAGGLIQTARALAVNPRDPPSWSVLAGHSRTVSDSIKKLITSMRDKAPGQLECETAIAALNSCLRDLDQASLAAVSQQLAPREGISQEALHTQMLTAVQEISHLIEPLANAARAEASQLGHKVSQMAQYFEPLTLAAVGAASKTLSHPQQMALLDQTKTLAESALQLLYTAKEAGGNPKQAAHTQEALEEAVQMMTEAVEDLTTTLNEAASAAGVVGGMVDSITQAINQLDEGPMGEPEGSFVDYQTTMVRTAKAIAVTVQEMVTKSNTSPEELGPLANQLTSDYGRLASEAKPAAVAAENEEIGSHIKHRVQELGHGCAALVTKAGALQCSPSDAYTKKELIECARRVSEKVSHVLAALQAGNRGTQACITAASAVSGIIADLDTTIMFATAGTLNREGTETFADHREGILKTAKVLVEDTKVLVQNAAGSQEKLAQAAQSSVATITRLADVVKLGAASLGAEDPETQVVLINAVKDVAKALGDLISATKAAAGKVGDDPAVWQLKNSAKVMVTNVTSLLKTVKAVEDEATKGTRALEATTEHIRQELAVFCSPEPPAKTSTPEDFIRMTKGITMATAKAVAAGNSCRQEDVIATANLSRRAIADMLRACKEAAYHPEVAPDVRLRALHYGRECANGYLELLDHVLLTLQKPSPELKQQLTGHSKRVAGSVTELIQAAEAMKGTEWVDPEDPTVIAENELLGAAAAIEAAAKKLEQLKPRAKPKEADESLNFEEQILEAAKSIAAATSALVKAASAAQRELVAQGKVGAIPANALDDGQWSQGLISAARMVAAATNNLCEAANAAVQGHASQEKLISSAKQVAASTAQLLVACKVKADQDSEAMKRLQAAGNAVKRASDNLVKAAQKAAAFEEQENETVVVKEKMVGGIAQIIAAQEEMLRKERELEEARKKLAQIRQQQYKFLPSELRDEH", "assay": "Affinity chromatography of cell lysates on cytoplasmic domain mimics, talin detected", "assay_type": "binding", "set-up": "endogenous in cells; host or cells: human platelets (also Jurkat, HT1080, mouse C2C12 myotubes)", "settings": "NHS-biotin-labeled human platelet lysates; result in words", "text": "To study possible influences of the structural changes induced by the Gly insertions, protein models were produced having the β1A cytoplasmic domain with one, two and three additional Gly residues inserted after the heptad-repeat motif (G2-, G3-, G4-β1A) and compared with the G1-β1A construct. As an additional control, a variant of the G4-β1A peptide was produced with a Tyr to Ala substitution in the membrane-proximal NPXY-motif (G4-β1A-Y788A) (FIG. 1). This mutation interferes with focal adhesion targeting and activation of integrins. The purified proteins were bound via their N=terminal His-Tag to a Ni^2+−resin and used in affinity chromatography experiments with lysates of NHS-biotin-labeled human platelets. Marked changes in the pattern of protein binding were observed as a consequence of the Gly insertions. Polypeptides migrating at 45, 56, 58, 140 and 240 kDa bound only to the mimics with Gly insertions. […] Using monoclonal antibodies, the 240 kDa and 45 kDa proteins were identified as filamin and actin, respectively. […] Talin bound to the G1- and G4-β1A construct but not to the Y788A-G4β1A construct. Thus, the structural changes in the model induced by the insertion of glycines into the coiled-coil motif and the integrin cytoplasmic domain sequence alter interactions of these proteins with cellular components. Alterations of the β1A tail that block cytoskeletal interactions, such as the Y788 mutation and β1B- and β1C-splice variants also abrogate binding to talin and filamin. Consequently, the observed in vitro interactions are likely to be biologically relevant.\nHuman platelets were obtained by centrifugation of freshly drawn blood samples at 1000 rpm for 20 minutes and sedimentation of the resulting platelet-rich plasma at 2600 rpm for 15 minutes. They were washed twice with 0.12 M NaCl, 0.0129 M trisodium citrate, 0.03 M glucose, pH 6.5, and once in Hepes-Saline (3.8 mM Hepes, 137 mM NaCl, 2.7 mM KCl, 5.6 mM D-Glucose, 3.3 mM Na2HPO4, pH 7.3-7.4). […]"}
{"molecule": "B1", "talin binding from cell lysates": "bound"}
{"molecule": "B2", "talin binding from cell lysates": "bound"}
{"biological_target": "T2, Full-length β3 peptide (β3 cytoplasmic …)", "assay": "αIIb peptide titrated with fixed saturating β3 peptide; inhibition of antibody binding to coated αIIbβ3 (ELISA), EC50 at B/B0=0.5", "settings": "not given", "units": {"EC50": "nM"}}
{"molecule": "KRNRPPLEEDDEEGQ", "note": "[αIIb peptide KRNRPPLEEDDEEGQ]", "EC50": 6}
{"molecule": "RPPLEED", "note": "[αIIb heptapeptide RPPLEED]", "EC50": 30}
{"molecule": "NRPPLEEDDEEGQ", "note": "[αIIb peptide NRPPLEEDDEEGQ]", "EC50": 8}
{"molecule": "KVGFFKRNRPPLEEDDEEGQ", "note": "[αIIb peptide KVGFFKRNRPPLEEDDEEGQ]", "EC50": 3}
{"molecule": "NRPPLEEDD", "note": "[αIIb peptide NRPPLEEDD]", "EC50": 20}
{"molecule": "KVGFFKRNRPPLEEDD", "note": "[αIIb peptide KVGFFKRNRPPLEEDD]", "EC50": 5}
